Data on 26 sequences can be found in the supplement of paper PMC9732359.

± gives the uncertainty stated by the source.

This series is described as follows: protein stability index of a GFP-peptide fusion (yeast GPS) (PSI 1-4); higher = more stable; sorted into four equal gates, so the index is relative within each strain. The procedure, abridged: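 Sequencing reads from sorted gates were used to score each peptide. The library consisted of tiled 17-residue yeast protein peptides fused downstream of GFP on a Cherry-expressing plasmid, pooled and carried in yeast. Mid-log cultures in leucine-free medium were split into four equal gates by GFP/Cherry ratio, and each gate's plasmids were PCR-amplified and Illumina-sequenced. The protein stability index adds up, over all gates, the read frequency multiplied by the gate number.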

Take DFELEISWCSLSETNGL [PRE10]: the protein stability index by setting is: (doa10∆) 2.92 ± 0.076; (pdr5∆) 2.93 ± 0.094; (san1∆) 2.84 ± 0.083; (ubr1∆) 2.84 ± 0.069.

Take KPTSHKQLQQPKSSPLK [SIR4]: the protein stability index runs as follows: (doa10∆) 2.87 ± 0.057; (pdr5∆) 3 ± 0.058; (san1∆) 3.04 ± 0.039; (ubr1∆) 2.95 ± 0.032.

With EKKLMQDNKQLYQIWIV [YDL116W/NUP84], the protein stability index reads like this: (doa10∆) 2.06 ± 0.075; (pdr5∆) 1.83 ± 0.078; (san1∆) 2.72 ± 0.15; (ubr1∆) 1.44 ± 0.072.

As to MEKESVYNLALKCAERQ [NUT1], the protein stability index by setting is: (pdr5∆) 2.1 ± 0.26; (san1∆) 2.91 ± 0.21.

The sequence SKISFIDEDKLYPSFKP [SSN2] returned a protein stability index (doa10∆) of 2.96 ± 0.14, a protein stability index (pdr5∆) of 2.8 ± 0.12, a protein stability index (san1∆) of 2.25 ± 0.087 and a protein stability index (ubr1∆) of 2.54 ± 0.081.

LLNEWSHNVDELLEHIE [RPN5]: the protein stability index came out at 2.57 ± 0.12 (doa10∆), 1.9 ± 0.09 (pdr5∆), 2.13 ± 0.19 (san1∆) and 1.58 ± 0.061 (ubr1∆).

As to GSFKYITARSAFVEFGA [SWP82], the protein stability index is, setting by setting: (doa10∆) 2.62 ± 0.11; (pdr5∆) 3.11 ± 0.074; (san1∆) 2.96 ± 0.069; (ubr1∆) 2.56 ± 0.056.

In the case of VGSPLTVSILQESSSLR [POP8], the protein stability index is, setting by setting: (doa10∆) 3.21 ± 0.078; (pdr5∆) 3.01 ± 0.057; (san1∆) 3.01 ± 0.063; (ubr1∆) 3.1 ± 0.042.

For the sequence ARDLLTRDEKDPKRLFE [RPS9A], the protein stability index by setting is: (doa10∆) 3.37 ± 0.19; (pdr5∆) 3.6 ± 0.11; (san1∆) 3.14 ± 0.14; (ubr1∆) 3.62 ± 0.083.

Take CRNDAVNWLAYTYLYVR [BRR2]: the protein stability index (doa10∆) is 3.25 ± 0.063, the protein stability index (pdr5∆) worked out at 3.54 ± 0.046, the protein stability index (san1∆) is 3.18 ± 0.046 and the protein stability index (ubr1∆) came to 3.21 ± 0.043.

On to QNFAEEDDSSNSCFSDG [REC8], for which the protein stability index worked out at 2.56 ± 0.15 (doa10∆), 2.59 ± 0.1 (pdr5∆), 2.58 ± 0.12 (san1∆) and 3.33 ± 0.12 (ubr1∆).

Sequence SYNLEYIESKFCPGEIV [YMR129W/POM152] yielded a protein stability index (doa10∆) of 3.15 ± 0.13, a protein stability index (pdr5∆) of 3.21 ± 0.19, a protein stability index (san1∆) of 3.12 ± 0.14 and a protein stability index (ubr1∆) of 3.21 ± 0.096.

FTNRIPSKTPEVYMRYR [SWI3]: the protein stability index reads like this: (doa10∆) 2.08 ± 0.052; (pdr5∆) 1.88 ± 0.057; (san1∆) 2.35 ± 0.068; (ubr1∆) 2.03 ± 0.054.

On to MKVEELIIDGFKSYATR [SMC2], for which the protein stability index is, setting by setting: (doa10∆) 3.45 ± 0.19; (pdr5∆) 3.21 ± 0.08; (san1∆) 3.11 ± 0.063; (ubr1∆) 3.22 ± 0.096.

For SAARGLSLVYEIGGSDL [ECM29], the protein stability index is 2.18 ± 0.058 (doa10∆), 1.94 ± 0.065 (pdr5∆), 3.33 ± 0.067 (san1∆) and 1.73 ± 0.056 (ubr1∆).

For the sequence PTVDEQRQYKVQLLLHI [SNF11], the protein stability index by setting is: (doa10∆) 1.8 ± 0.12; (pdr5∆) 1.95 ± 0.082; (san1∆) 1.82 ± 0.12; (ubr1∆) 1.89 ± 0.065.

Consider DQMVVGWYHSHPGFGCW [RPN11], for which the protein stability index (doa10∆) amounted to 2.57 ± 0.079, the protein stability index (pdr5∆) amounted to 2.92 ± 0.063, the protein stability index (san1∆) is 2.37 ± 0.069 and the protein stability index (ubr1∆) was 2.21 ± 0.087.

With EFSPRLHNIWSNGLLSI [YML103C/NUP188], the protein stability index is, setting by setting: (doa10∆) 1.85 ± 0.061; (pdr5∆) 1.91 ± 0.059; (san1∆) 2.08 ± 0.11; (ubr1∆) 1.89 ± 0.046.

Take KVSSLKMFIQRILAMCV [YCS4]: the protein stability index is, setting by setting: (doa10∆) 2.64 ± 0.069; (pdr5∆) 2.48 ± 0.061; (san1∆) 2.23 ± 0.063; (ubr1∆) 2.88 ± 0.057.

Regarding KEAALKTMIKTIEKDKM [SMC2], the protein stability index turned out to be 2.8 ± 0.17 (doa10∆), 1.83 ± 0.14 (pdr5∆), 1.57 ± 0.13 (san1∆) and 2.03 ± 0.061 (ubr1∆).

Turning to NACAKYGRDDMENIKKS [ISW2], the protein stability index is, setting by setting: (doa10∆) 2.91 ± 0.11; (pdr5∆) 2.93 ± 0.12; (san1∆) 3.08 ± 0.078; (ubr1∆) 3.06 ± 0.086.

With AEFKKENLADLDYQIGN [LIN1], the protein stability index runs as follows: (doa10∆) 3.29 ± 0.086; (pdr5∆) 3.32 ± 0.068; (san1∆) 3.24 ± 0.057; (ubr1∆) 3.26 ± 0.071.

Turning to QKDKSDTYKRFKYLLGV [ISW2], the protein stability index by setting is: (doa10∆) 1.59 ± 0.05; (pdr5∆) 1.4 ± 0.062; (san1∆) 1.4 ± 0.1; (ubr1∆) 1.58 ± 0.048.

For the sequence QLQKILESLKPIDDTMT [MTW1], the protein stability index runs as follows: (doa10∆) 2.73 ± 0.072; (pdr5∆) 2.86 ± 0.058; (san1∆) 2.69 ± 0.052; (ubr1∆) 2.59 ± 0.042.

Regarding NTEGSVVYEDSLELEKV [SNF2], the protein stability index (doa10∆) is 2.98 ± 0.063, the protein stability index (pdr5∆) is 2.94 ± 0.062, the protein stability index (san1∆) came out at 2.48 ± 0.095 and the protein stability index (ubr1∆) amounted to 3.01 ± 0.095.

ATEPQMVLFNIYDDWLD [PRP8]: the protein stability index (doa10∆) turned out to be 2.28 ± 0.051, the protein stability index (pdr5∆) came to 2.15 ± 0.047, the protein stability index (san1∆) stood at 1.6 ± 0.09 and the protein stability index (ubr1∆) is 2.18 ± 0.044.
